Measured values taken from the nanobody polyreactivity screen of Harvey et al. (2022).

Test: yeast display, Sf9 membrane polyspecificity reagent, FACS + sequencing; frameworks hold sequencing errors
Outline: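 After 36–48 hours of galactose induction, yeast (Saccharomyces cerevisiae BJ5465) displaying a synthetic nanobody library were stained at 4 °C for 1 hour with 10% biotinylated, detergent-solubilized Sf9 membrane reagent. Streptavidin microbeads enriched the stained cells before FACS sorting into low and high (top ~1%) gates on anti-HA and streptavidin fluorescence. Each clone's polyreactivity label reflects its gate of origin.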

Sequence	polyreactivity (PSR sort gate)
QVQLVESGGGLVQAGGSLRLSCAASGSTFVRYAMGWDRQAPGTEGSWVAAISVDGDSTYYADSVKGRFTISRDNAKNTVYFQLNSLKPEDTAVYYCNVPLWDYYPRFPLHDYWGQGTQVTVSA	low polyreactivity
QVQLVESGGGLVQAGGSLRLSCAASGSTFVRYDMGWYRQAPGKERELVADISWSGVSTYADSVKGRFTISRDNAKNTVYLQMNSLIAEDTAVYYCAKDSDLYQRGGYYWGQGTQVTVSS	low polyreactivity
QVQLVESGGGLVQAGGSLRLSCAASGSTFVRYTMGWYRQAPGKERELVAGITGGGSTNYADSVKGRFTISRDNAKNTVYLQMNSLKPEDTAVYYCAADLWWERAYPEYDYWGQGTQVTVSS	low polyreactivity
QVQLVESGGGLVQAGGSLRLSCAASGSTFVSNTMGWYRQAPGKERELVAAITWGGGGTYYADSVKGRFTISRDNAKNTVYLQMNSLKPEDTAVYYCAAKVQGGYYDYDYWGQGTQVTVSS	low polyreactivity
QVQLVESGGGLVQAGGSLRLSCAASGSTFVSYDMGWYRQAPGKERELVATIRRGGSTYYADSVKGRFTISRDNAKNTVYLQMNSLKPEDTAVYYCAAQQYAKYGWYAYDYWGQGTQVTVSS	low polyreactivity
QVQLVESGGGLVQAGGSLRLSCAASGSTFVTNDMGWSRQAPGKERELVAAISSGTSTNYAYSVKGRFTISRDNAKNTVYLQMNSQKPEDTAVYYCAADSLKRYDYWGQGTQVTVSS	low polyreactivity
QVQLVESGGGLVQAGGSLRLSCAASGSTFVTYAMGWYRQAPGKERELVAAISSGGGNTYYADSVKGRFTISRDNAKNTVYLQMNSLKPEDSAVYYCAAVNPRSEYDYWGQGTQVTVSS	high polyreactivity
QVQLVESGGGLVQAGGSLRLSCAASGSTFVTYAMGWYRQAPGKERELVAAISYSGGSTYADSVKGRFTISRDNAKNTVYLQMNSLKPEDTAVYYCNSDTSVDVRFDYWGQGTQVTVSS	low polyreactivity
QVQLVESGGGLVQAGGSLRLSCAASGSTFVVNAMGWYRQAPGKERELVAAITQDGDGTYYADSVKGRFTISRDNAKNTVYLQMNSLKPEDTAVYYCAAYPFYGPYDEFDYWGQGTQVTVSS	low polyreactivity
QVQLVESGGGLVQAGGSLRLSCAASGSTFVVYAMGWYRQAPGKERELLAAIRANVGGTYYADSVKGRFTISRDNAKNTVYLQMNSLKPEDTAVYYCAAGGYYYNPSFTYGILDYEYCGQGTQVTVSS	low polyreactivity
QVQLVESGGGLVQAGGSLRLSCAASGSTFVWYVMGWYRQAPGKEREFVAAISTSGGRTYYADSVKGRFTISRDNAKNTGYLQMNSLKPEDTAVYYCATRPYFTYRWYDYWGQGTQVTVSS	high polyreactivity
QVQLVESGGGLVQAGGSLRLSCAASGSTFVYNAMGWDRQAPGKERELVAAITVSDGSTYYADSVKGRFTISRDNAKNTVYLHMKSLKPEDTAVFYCNADFPRKTRYEYWGQGTQVTVSS	low polyreactivity
QVQLVESGGGLVQAGGSLRLSCAASGSTFVYNAMGWYRQAPGKERELVAAISWSDGSTYYADSVKGRFTISRDNAKNTVYLELNSLKPEDTAVYYCADEGYYSWDVHDYNYWGQGTQVTVSS	high polyreactivity
QVQLVESGGGLVQAGGSLRLSCAASGSTFVYYAKGWYRQAPGKEREFVAAISISTGSTYYADSVKGRFTISRDNAKNTVYLQMNSLKPEDTAVYYCAVDWFLGGYDDLDYWGQGTQVTVSS	low polyreactivity
QVQLVESGGGLVQAGGSLRLSCAASGSTFVYYAMGWYRQAPGKERELVARISSTGSTNYADSVKGRFTISRDNAKNTVYLQMHSLKPEDTAVYYCAARGPSPGHGTYTRTRGQSYYYWGQCTQVTVSS	high polyreactivity
QVQLVESGGGLVQAGGSLRLSCAASGSTFVYYTMGLYRQAPGKERELVAAISWRGDDTYYSDSVKGRFTISRDNAKNTVYLQMNSLKPEDTAVYYCAGEPVSTYYWTFGDYWGQGYQVTVSS	low polyreactivity

Sequence	polyreactivity (PSR sort gate)
QVQLVESGGGLVQAGGSLRLSCAASGSTFVYYVMGWYRQAPGKQRELVAAISTSGGSTYYADSVKGRFTISRDNAKKTVYLQMNSLKPEDTAVYYCAARVYYKYDYWGQGTQVTVSS	low polyreactivity
QVQLVESGGGLVQAGGSLRLSCAASGSTFWANAMGWYRPAPGKERELLAGITWNAGSTYYADSVKGRYTISRDNAKNNVYLQLNSLKPEDTAVYYCAAYYHFQGWGPGYNSCGQGTQVTVSS	low polyreactivity
QVQLVESGGGLVQAGGSLRLSCAASGSTFWANAMGWYRPAPGKERELVAAISRNGGSTYYADSVKGRFTISRDNAKNTVYLQMNSLKPEDTAVYYCAAKKYYYRRQLDYWGQGTQVTVSS	high polyreactivity
QVQLVESGGGLVQAGGSLRLSCAASGSTFWDNAMGWYRQAPGKERELVAAITAIGGTTYYADSVKGRFTISRDNAKNTVYLQMNSLKPEDTAVYYCAADWTTYGFSYFSIYYYWGQGTQVTVSS	low polyreactivity
QVQLVESGGGLVQAGGSLRLSCAASGSTFWDYAMGWYRQAHGKERELVAAITDSGGSTYYADSVKGRFTISRDNAKNTVYLQMNSLKPEDTAVYYCAAEAYIWWAWEYEYWGQGPQVTVSS	high polyreactivity
QVQLVESGGGLVQAGGSLRLSCAASGSTFWDYAMGWYRQAPGKERELVASISSGGRTYYADSVKGRFTISRDNAKNTVYLQMNSLKPEDTAVYYCARRSWWDYYSWGQGTQVTVSS	high polyreactivity
QVQLVESGGGLVQAGGSLRLSCAASGSTFWENSMGWYRQAPGKERELVAAISWGGGSTYYADSVKGRFTISRDNAKNTVYLQMNSLKPEDTAGYYCAADQTSPQFLTSYGGYNYWGQGTQVTVSS	low polyreactivity
QVQLVESGGGLVQAGGSLRLSCAASGSTFWEYVMGWYRQAPGKERELVAAITTNDDSTYYADSVKGRFTISRDNAKNTVYLQMNSLKPEDTAVYYFNADQITGQFDYWGQGTQVTVSS	low polyreactivity
QVQLVESGGGLVQAGGSLRLSCAASGSTFWFYAMGWYRQAPGKERELVAVISNSGSTYYADSVKGRFTISRDNAKNTVYLQMNSLKPEDTAVYYCAAYAYQYRFSGYGYWGQGTQVTVSS	low polyreactivity
QVQLVESGGGLVQAGGSLRLSCAASGSTFWFYPMGRYRQAPGKERELVAVISNSGSTYYADSVKGRFTISRDNAKNTVYLQMNSLKPEDTAVYYCNKDGGGDSYWYDYWGQGTQVTVSS	low polyreactivity
QVQLVESGGGLVQAGGSLRLSCAASGSTFWGYAMGWYRQAPGKERELVAAITSGGRTDYADSVKGRFTISRHNAKNTVYLQMNSRKPEDTAVYYCNAYLYYYRYHYNYWGQGTQVTVSS	low polyreactivity
QVQLVESGGGLVQAGGSLRLSCAASGSTFWGYAMGWYRQAPGKERELVATINQSAGSTYYADSVKGRFTISRDNAKNTVYLQMNSLKPEDTAVYYCAAEARVQFSYDYWGQGTQVTVSS	low polyreactivity
QVQLVESGGGLVQAGGSLRLSCAASGSTFWKYAMGWYRQAPGKERELVARISRNGGSTYYADSVKGRFTISRDNAKNTVYLQMNSLKPEDTAVYYCATAYVHYVYKYDYWGQGTQVTVSS	high polyreactivity
QVQLVESGGGLVQAGGSLRLSCAASGSTFWLNAMGWYRQAPGKEREFVAAITWSSGSTYYADSVKGRFTISRDNAKNTVYLQMNSLKPEDTAVYYCAADGRYVRIRGDYWGQGTQVTVSS	low polyreactivity
QVQLVESGGGLVQAGGSLRLSCAASGSTFWLYAMGWYREAPGKERELVATISERGGSTYYADSVKGRFTISRDYAKNTVYFQMNSLKPEDTAVYYCAADQFHYPRGRRYDYWGQGTQVTVSS	low polyreactivity
QVQLVESGGGLVQAGGSLRLSCAASGSTFWLYAMGWYRQAPGKEREFVATISSSTTYYADSVKGRFTISRDNAKNTVYFQMNSLKPQDTAVYYCNAADYYSDVWSSVDYEGDYWGQGTQVTVSS	low polyreactivity
